“Also recorded” adds a separate entry of the source.
Key:
[1] = target: T1, Nogo66 + sNogoR344-Fc (Rattus norvegicus, UniProt Q99M75, A303T/C287S/C43R/E284G/T53A); assay: ELISA: inhibition of Nogo66 binding to sNogoR344-Fc
T1 construct: amino acid residues 26-344 of rat Nogo receptor-1; made in house
T1 sequence (Q99M75 26-344 C43R/T53A/E284G/C287S/A303T): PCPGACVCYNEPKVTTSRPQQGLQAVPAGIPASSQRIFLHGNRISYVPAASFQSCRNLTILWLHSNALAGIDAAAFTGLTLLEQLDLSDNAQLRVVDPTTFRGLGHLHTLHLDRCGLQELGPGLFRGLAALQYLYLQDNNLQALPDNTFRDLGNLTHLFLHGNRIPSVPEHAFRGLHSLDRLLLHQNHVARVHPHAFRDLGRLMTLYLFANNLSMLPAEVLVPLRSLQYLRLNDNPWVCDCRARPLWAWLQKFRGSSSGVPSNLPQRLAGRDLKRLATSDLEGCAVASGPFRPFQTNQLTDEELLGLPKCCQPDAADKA
Protocol: 0.5 μg of a soluble Nogo receptor-1 fusion protein comprising amino acid residues 26-344 of rat Nogo receptor-1 and the hinge and Fc region of the rat IgG1 molecule (sNogoR344-Fc) produced as described below was immobilized on […] of protein-A- or wheatgerm agglutinin-conjugated SPA beads (Amersham Pharmacia Biotech) for 2 hours at 25° C. SPA beads coupled with Fc-sNogoR-1, anti-Nogo receptor-1 mAb and 1 μl ^125I-Nogo66 (Amersham, 2000 Ci/mmol, 1 nM) in […] of the HEPES-buffered incubation medium (10 mM HEPES, pH 7.4, 0.1% bovine serum albumin, 0.1% ovalbumin, 2 mM MgCl2, 2 mM CaCl2 and protease inhibitors) was added to each sample well. After 16 hours, radioactivity was measured in quadruplicate samples using a TopCount® (Packard). IC50 values were calculated from a curve-fit analysis (FIG. 3) (PRISM, GraphPad Software, NJ). In some experiments, we also used AP-ligand conjugates (e.g. AP-Nogo66) and detected binding by monitoring alkaline phosphatase activity. We also assayed the ability of the mAbs to block binding of the ligands MAG-Fc and AP-OM-gp to Nogo receptor-1.
Monoclonal antibodies 7E11, 5B10, 1H2, 3G5 and 2F7 all inhibited binding of Nogo66, MAG and OM-gp to sNogoR344-Fc. The calculated IC50 for Nogo66 for 7E11 and 1H2 were 400 nM and 60 nM, respectively. The data from ELISAs monitoring mAb-mediated inhibition of binding of the three ligands to Nogo receptor-1 are summarized in Table 6.
The percent displacement is shown at 30 nM antibody and the EC50 for certain mAbs determined from curve-fit analysis as described. “-” indicates no detectable activity and “ND” indicates not determined.
We also performed ELISA binding assays using the Fab-phage 141)5.

[2] = target: T2, rat NgR1 (Rattus norvegicus, UniProt Q99M75); assay: Antibody binding specificity: rat Nogo receptor-1
T2 sequence (Q99M75 27-310): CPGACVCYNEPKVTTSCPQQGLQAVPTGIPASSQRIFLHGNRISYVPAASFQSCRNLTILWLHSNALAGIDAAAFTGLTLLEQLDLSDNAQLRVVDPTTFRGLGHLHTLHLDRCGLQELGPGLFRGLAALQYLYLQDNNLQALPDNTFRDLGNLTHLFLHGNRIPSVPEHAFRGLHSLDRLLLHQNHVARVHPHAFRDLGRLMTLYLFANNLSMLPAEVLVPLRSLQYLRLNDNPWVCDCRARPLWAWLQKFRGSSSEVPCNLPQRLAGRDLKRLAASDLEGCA

[3] = target: T3, panel of Nogo receptor-1 polypeptides (sNogoR310-Fc, sNogoR344-Fc, p-617, p-618, p-4, p-5) (Rattus norvegicus, UniProt Q99M75); assay: Antibody specificity ELISA with a panel of Nogo receptor-1 polypeptides; type: binding
T3 construct: made in house
Text: To determine the specificity of the monoclonal and Fab-phage antibodies produced in Examples 1 and 2, we performed an ELISA using a panel of Nogo receptor-1 polypeptides. The panel consisted of sNogoR310-Fc (a fusion protein comprising amino acids 26-310 of rat Nogo receptor-1 and a rat Fc fragment), sNogoR344-Fc (see supra), polypeptide p-617 (SEQ ID NO: 1), polypeptide p-618 (a 19-amino acid polypeptide from the LRR7 region of rat Nogo receptor-1; FIG. 2; SEQ ID NO: 11) and polypeptides p-4 and p-5 (polypeptides from the LRR5 and LRRCT regions of Nogo receptor-1, respectively). Ovalbumin and BSA were used as controls.

[4] = tested on: DRG neurons, myelin-mediated inhibition of neurite outgrowth; assay: Neurite outgrowth assay, P3-4 rat DRG neurons on CNS myelin (Example 5); type: cell-based; settings: mAb added after plating
Protocol: To test the ability of the monoclonal and Fab-phage antibodies produced above to lessen the inhibitory effect of CNS myelin on neurons, Lab-Tek® culture slides (4 wells) were coated with 0.1 mg/ml poly-D-lysine (Sigma®). CNS myelin or PBS was spotted as 3 μl drops. Fluorescent microspheres (Polysciences) were added to the myelin/PBS to allow later identification of the drops (Grandpre et al., Nature 403:439-444 (2000)). Lab-Tek® slides were then rinsed and coated with 10 μg/ml laminin (Gibco™). Dorsal root ganglions (DRG's) from P3-4 Sprague Dawley rat pups were dissociated with 1 mg/ml collagenase type 1 (Worthington), triturated with fire-polished Pasteur pipettes pre-plated to enrich in neuronal cells and finally plated at 23,000 cells/well on the pre-coated Lab-Tek® culture slides. The culture medium was F12 containing 5% heat inactivated donor horse serum, 5% heat inactivated fetal bovine serum and 50 ng/ml mNGF and incubated at 37° C. and 5% CO2 for 6 hours. Fifteen […] of mAb 7E11 was added immediately after plating.
Slides were fixed for 20 minutes with 4% paraformaldehyde containing 20% sucrose and stained for the neuronal marker anti beta-III-tubulin (Covance TUJ1) diluted 1:500. […] 5× digital images were acquired with OpenLab™ software and analysed by using the MetaMorph® software for quantification of neurite outgrowth.

[5] = target: T4, mouse NgR1 (Mus musculus, UniProt Q99PI8); assay: Antibody binding specificity: mouse Nogo receptor-1
T4 sequence (Q99PI8 27-447): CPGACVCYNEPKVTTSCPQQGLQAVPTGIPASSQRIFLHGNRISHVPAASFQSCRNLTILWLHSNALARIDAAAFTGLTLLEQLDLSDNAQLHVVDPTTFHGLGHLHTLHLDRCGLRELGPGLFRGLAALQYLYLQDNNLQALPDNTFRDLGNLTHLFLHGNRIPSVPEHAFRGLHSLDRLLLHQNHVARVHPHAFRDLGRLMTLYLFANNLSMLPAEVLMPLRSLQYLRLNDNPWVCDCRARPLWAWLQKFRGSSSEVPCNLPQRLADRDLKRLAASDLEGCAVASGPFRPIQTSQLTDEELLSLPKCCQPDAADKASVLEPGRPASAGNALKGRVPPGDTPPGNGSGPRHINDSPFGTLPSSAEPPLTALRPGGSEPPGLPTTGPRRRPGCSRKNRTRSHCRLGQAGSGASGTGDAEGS

inhibition of binding of Nogo66 to sNogoR344-Fc [1]: inhibited | EC50 ([1]; curve-fit analysis): 1.7 µM | binding to rat Nogo receptor-1 [2]: bound; also recorded: binds well | binding to polypeptide p-617 (SEQ ID NO: 1) [3]: specifically bound | binding to mouse Nogo receptor-1 [5]: not and poorly
B1: 7E11: murine monoclonal anti-Nogo receptor-1 antibody, immunogen rat Nogo receptor-1 residues 110-125, IgG1 kappa, ATCC PTA-4587 (antibody, V domains shown)
VH: VQLQESGAELVMPGASVKMSCKASGYTFTDYWMHWVKQRPGQGLEWIGAIDPSDSYSSYNQNFKGKATLTVDGSSSTAYMQLSSLTSEDSAVYYCARRITEAGAWFAYWGQGTTVT
VL: MKLPVRLLVLMFWIPASSSDVVMTQTPLSLPVSLGDQASISCRSSQSLVHSNGNTYLHWYLQKPGQSPKLLIYKVSNRFSGVPDRFSGSGSGTDFTLKISRVDAEDLGVYFCSQSTHVPFTFGGGTKLEIKRADAAPTVSISHH
modifications: 7E11 heavy chain; 7E11 light chain
notes: murine monoclonal anti-Nogo receptor-1 antibody, immunogen rat Nogo receptor-1 residues 110-125, IgG1 kappa, ATCC PTA-4587
protection of DRG neurons from myelin-mediated inhibition of neurite outgrowth [4]: protected
